Laboratory results reported in the supplement of paper PMC10567573.

B1: TMEM175 (parent)
chain: ALLHQAETLQPSVWFGGREHVLMF

Variants of: B1
Assay: protein stability index of a GFP-peptide fusion (GPS, HEK-293T) (PSI 1-6); higher = more stable
Conditions: c terminus: a fixed tail appended
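Also: lentivirally expressed fusions sorted by FACS into six bins by GFP to DsRed ratio, PSI derived from sequencing read proportions per bin multiplied by bin number.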

Variant | protein stability index
ALLHQAETLVPSVWFGGREHVLMF [Q10V] | 1.06
ALLHQAETLNPSVWFGGREHVLMF [Q10N] | 3.13
ALLHQAETLSPSVWFGGREHVLMF [Q10S] | 2.2
ALLHQAETLMPSVWFGGREHVLMF [Q10M] | 1.96
ALLHQAETLIPSVWFGGREHVLMF [Q10I] | 2.49
ALLHQAETLPPSVWFGGREHVLMF [Q10P] | 2.16
ALLHQAETLDPSVWFGGREHVLMF [Q10D] | 2.35
ALLHQAETLRPSVWFGGREHVLMF [Q10R] | 2.36
ALLHQAETLHPSVWFGGREHVLMF [Q10H] | 1.99
ALLHQAETLWPSVWFGGREHVLMF [Q10W] | 1.51
ALLHQAETLQPSSWFGGREHVLMF [V13S] | 2.73
ALLHQAETLQPSQWFGGREHVLMF [V13Q] | 3.1
ALLHQAETLQPSMWFGGREHVLMF [V13M] | 2.46
ALLHQAETLQPSHWFGGREHVLMF [V13H] | 2.22
ALLHQAETLQPSWWFGGREHVLMF [V13W] | 2.36
ALLHQAETLQPSEWFGGREHVLMF [V13E] | 1.86
ALLHQAETLQPSLWFGGREHVLMF [V13L] | 2.59
ALLHQAETLQPSIWFGGREHVLMF [V13I] | 2.25
ALLHQAETLQPSPWFGGREHVLMF [V13P] | 2.16
ALLHQAETLQPSYWFGGREHVLMF [V13Y] | 1.69
ALLHQAETLQPSNWFGGREHVLMF [V13N] | 2.28
ALLHQAETLQPSRWFGGREHVLMF [V13R] | 2.02
ALLHQAETLQPSDWFGGREHVLMF [V13D] | 2.16
ALLHQAETLQPSAWFGGREHVLMF [V13A] | 3.02

Variant | protein stability index
ALLHQAETLQPSCWFGGREHVLMF [V13C] | 3.13
ALLHQAETLQPSVWFDGREHVLMF [G16D] | 2.04
ALLHQAETLQPSVWFYGREHVLMF [G16Y] | 3.05
ALLHQAETLQPSVWFSGREHVLMF [G16S] | 2.06
ALLHQAETLQPSVWFCGREHVLMF [G16C] | 2.98
ALLHQAETLQPSVWFLGREHVLMF [G16L] | 2.28
ALLHQAETLQPSVWFNGREHVLMF [G16N] | 2.41
ALLHQAETLQPSVWFHGREHVLMF [G16H] | 2.1
ALLHQAETLQPSVWFPGREHVLMF [G16P] | 1.14
ALLHQAETLQPSVWFKGREHVLMF [G16K] | 2.17
ALLHQAETLQPSVWFTGREHVLMF [G16T] | 1.47
ALLHQAETLQPSVWFMGREHVLMF [G16M] | 2.69
ALLHQAETLQPSVWQGGREHVLMF [F15Q] | 1.27
ALLHQAETLQPSVWAGGREHVLMF [F15A] | 1.88
ALLHQAETLQPSVWGGGREHVLMF [F15G] | 2.22
ALLHQAETLQPSVWEGGREHVLMF [F15E] | 1.57
ALLHQAETLQPSVWDGGREHVLMF [F15D] | 2.29
ALLHQAETLQPSVWRGGREHVLMF [F15R] | 2.02
ALLHQAETLQPSVWSGGREHVLMF [F15S] | 1.57
ALLHQAETLQPSVWHGGREHVLMF [F15H] | 2.12
ALLHQAETLQPSVWTGGREHVLMF [F15T] | 1.85
ALLHQAETLQPSVWYGGREHVLMF [F15Y] | 2.4
ALLHQAETLQPSVWCGGREHVLMF [F15C] | 2.5
ALLHQAETLQPSVWMGGREHVLMF [F15M] | 1.82

Variant | protein stability index
ALLHQAETLQPSVWNGGREHVLMF [F15N] | 1.65
ALLHQAETLQPVVWFGGREHVLMF [S12V] | 3.21
ALLHQAETLQPEVWFGGREHVLMF [S12E] | 2.31
ALLHQAETLQPNVWFGGREHVLMF [S12N] | 1
ALLHQAETLQPTVWFGGREHVLMF [S12T] | 2.65
ALLHQAETLQPMVWFGGREHVLMF [S12M] | 1.75
ALLHQAETLQPHVWFGGREHVLMF [S12H] | 1.15
ALLHQAETLQPIVWFGGREHVLMF [S12I] | 3.85
ALLHQAETLQPQVWFGGREHVLMF [S12Q] | 1.82
ALLHQAETLQPPVWFGGREHVLMF [S12P] | 4.3
ALLHQAETLQPWVWFGGREHVLMF [S12W] | 2.82
ALLHQAETAQPSVWFGGREHVLMF [L9A] | 2.42
ALLHQAETWQPSVWFGGREHVLMF [L9W] | 1.7
ALLHQAETEQPSVWFGGREHVLMF [L9E] | 1.16
ALLHQAETCQPSVWFGGREHVLMF [L9C] | 3.64
ALLHQAETSQPSVWFGGREHVLMF [L9S] | 1.36
ALLHQAETFQPSVWFGGREHVLMF [L9F] | 2.49
ALLHQAETNQPSVWFGGREHVLMF [L9N] | 1.97
ALLHQAETRQPSVWFGGREHVLMF [L9R] | 2.19
ALLHQAETGQPSVWFGGREHVLMF [L9G] | 2.85
ALLHQAETPQPSVWFGGREHVLMF [L9P] | 2.11
ALLHQAETQQPSVWFGGREHVLMF [L9Q] | 3.27
ALLHQAETLQPSVHFGGREHVLMF [W14H] | 2.31
ALLHQAETLQPSVMFGGREHVLMF [W14M] | 2.08

Variant | protein stability index
ALLHQAETLQPSVDFGGREHVLMF [W14D] | 1.74
ALLHQAETLQPSVNFGGREHVLMF [W14N] | 1.3
ALLHQAETLQPSVEFGGREHVLMF [W14E] | 1.38
ALLHQAETLQPSVQFGGREHVLMF [W14Q] | 2.24
ALLHQAETLQPSVYFGGREHVLMF [W14Y] | 2.11
ALLHQAETLQPSVVFGGREHVLMF [W14V] | 1.91
ALLHQAETLQPSVSFGGREHVLMF [W14S] | 1.55
ALLHQAETLQPSVGFGGREHVLMF [W14G] | 2.64
ALLHQAETLQPSVLFGGREHVLMF [W14L] | 1.73
ALLHQAETLQPSVRFGGREHVLMF [W14R] | 2.65
ALLHQAETLQPSVIFGGREHVLMF [W14I] | 2.22
ALLHQAETLQPSVAFGGREHVLMF [W14A] | 1.66
ALLHQAETLQPSVFFGGREHVLMF [W14F] | 2.48
ALLHQAETLQPSVWFGGREEVLMF [H20E] | 1.6
ALLHQAETLQPSVWFGGREMVLMF [H20M] | 3.07
ALLHQAETLQPSVWFGGRENVLMF [H20N] | 2.48
ALLHQAETLQPSVWFGGRETVLMF [H20T] | 3.65
ALLHQAETLQPSVWFGGREDVLMF [H20D] | 1.29
ALLHQAETLQPSVWFGGREGVLMF [H20G] | 1.74
ALLHQAETLQPSVWFGGREQVLMF [H20Q] | 1.44
ALLHQAETLQPSVWFGGREPVLMF [H20P] | 3.07
ALLHQAETLQPSVWFGGRERVLMF [H20R] | 4.2
